Assays:
[1] = biological target: T1, mouse PAI-1 (mouse, UniProt P22777 23-402, limits assumed, n-terminal biotin label (in the P-ELISA)); experiment: P-ELISA
T1 construct: also called murine PAI-1
T1 sequence (looked up): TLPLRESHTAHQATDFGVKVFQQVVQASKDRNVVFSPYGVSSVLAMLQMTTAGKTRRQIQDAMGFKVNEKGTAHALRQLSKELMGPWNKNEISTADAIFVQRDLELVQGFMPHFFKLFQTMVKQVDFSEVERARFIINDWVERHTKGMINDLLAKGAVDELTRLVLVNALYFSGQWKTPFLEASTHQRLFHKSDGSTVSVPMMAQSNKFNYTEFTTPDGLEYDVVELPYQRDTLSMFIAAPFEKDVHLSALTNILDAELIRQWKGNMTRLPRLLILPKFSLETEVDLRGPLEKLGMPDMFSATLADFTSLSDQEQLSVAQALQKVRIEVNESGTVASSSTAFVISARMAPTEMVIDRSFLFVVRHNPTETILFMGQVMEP

[2] = biological target: T2, PAI-1 (antigen of Example 11, species not stated); experiment: SPR-type biosensor, antibody captured on anti-human IgG surface at 5 densities, 25 C, global 1:1 fit
T2 construct: Its method text reads as if hP-1 and mP-1 were the antigens run over captured antibody, that is human and mouse PAI-1
T2 sequence (P05121 24-402): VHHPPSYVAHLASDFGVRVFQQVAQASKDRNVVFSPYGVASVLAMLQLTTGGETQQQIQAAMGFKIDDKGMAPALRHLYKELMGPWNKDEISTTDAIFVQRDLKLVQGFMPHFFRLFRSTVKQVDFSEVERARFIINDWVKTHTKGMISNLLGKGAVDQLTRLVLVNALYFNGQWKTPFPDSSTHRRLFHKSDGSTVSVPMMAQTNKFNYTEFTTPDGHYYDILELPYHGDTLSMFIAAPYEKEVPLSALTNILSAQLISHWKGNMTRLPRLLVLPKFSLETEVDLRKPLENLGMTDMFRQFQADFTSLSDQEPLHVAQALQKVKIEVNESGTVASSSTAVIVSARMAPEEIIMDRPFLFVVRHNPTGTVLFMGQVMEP
Experimental: This experiment was conducted to measure the binding constants for hP-1 (humanized mAb CT140) and mP-1 (mouse antibody 33B8).
hP-1 was captured onto an anti-human IgG surface (Cat-tag goat mAb) at 5 different surface densities. hP-1 and mP-1 were diluted to a starting concentration of 100 nM and tested in a 3-fold dilution series using PBS with 0.005% Tween-20 and 0.1 mg/ml BSA. Binding data were collected at 25° C. The association phase was monitored for 5 minutes and the dissociation phase was monitored for 2.5 hours. The response data for each antigen over the 5 different density mAb surfaces were globally fit to a simple 1:1 interaction model. A fit to the data was determined (data not shown) a binding constants were determined at 25° C.

[3] = biological target: T3, rat PAI-1 (rat, UniProt P20961 24-402, n-terminal biotin label (in the P-ELISA)); experiment: P-ELISA: biotin-labeled PAI-1 on streptavidin/Neutravidin coated wells, HRP-conjugated secondary antibody, O.D. 450. Target taken from the title printed in the panel; the legend paragraph 67 names FIG. 12C as mouse
T3 sequence (looked up): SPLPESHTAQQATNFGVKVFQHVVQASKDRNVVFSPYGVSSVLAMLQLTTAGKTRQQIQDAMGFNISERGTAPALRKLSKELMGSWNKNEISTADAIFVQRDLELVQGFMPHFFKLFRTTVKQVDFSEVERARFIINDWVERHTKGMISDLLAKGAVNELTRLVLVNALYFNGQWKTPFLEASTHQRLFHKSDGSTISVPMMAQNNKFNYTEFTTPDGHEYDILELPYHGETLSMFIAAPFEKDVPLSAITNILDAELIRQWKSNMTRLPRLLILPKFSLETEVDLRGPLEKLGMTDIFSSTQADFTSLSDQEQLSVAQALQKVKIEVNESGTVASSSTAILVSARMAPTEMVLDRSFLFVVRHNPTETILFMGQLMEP
Experimental: All reagents are brought to room temperature (18-23° C.) and dilutions are made in Wash Buffer (1×TBS, 0.1% BSA, 0.05% Tween). Briefly, protocol steps are as follows: [0546] Add 100 μL of Neutravidin™ Pierce#31000 (0.5 μg/ml in TBS) to 96-well Immulon-4 plates. Incubate 1 hour at room temperature (RT). [0547] Wash wells 3 times with 200 μl Wash Buffer. [0548] Add 50 μL of biotinylated biomolecule (0.06 nM) Incubate 1 hour at RT. [0549] Wash plate 3 times in Wash Buffer. [0550] Add 100 μL of 1° Ab Incubate 30 min RT [0551] Wash plate 3 times in Wash Buffer. [0552] Add 50 μL of […] (1:10,000) Incubate 30 min RT [0553] Wash plate 4 times in Wash Buffer. [0554] Add 100 μl TMB Reagent (substrate). Incubate at room temperature. [0555] Add 100 μL of 2 M Sulfuric Acid to stop development of the substrate. [0556] Plates were read using a […] filter with a 615-620 nm filter as the reference.
Binding of CT140 to rat, mouse, rabbit and human PAI-1 was determined by P-ELISA (see FIG. 12). The relative affinity of CT140 is human=rabbit>mouse>rat (FIG. 12A, FIG. 12B, FIG. 12C and FIG. 12D, respectively).

fold greater affinity relative to the parent mouse anti-PAI-1 [1]: > 10 fold | Kd [2]: 0.015 nM | koff [2]: 8e-06 s⁻¹ | kon [2]: 530000 M⁻¹ s⁻¹ | binding result [3]: binds
B1: CT140 (humanized version of murine monoclonal antibody 33B8, IgG4 with the hinge of IgG1) (antibody, V domains shown)
VH: QVQLVQSGAEVKKPGASVKVSCKASGYTFTNYGMNWVRQAPGQGLEWMGWINTYTGEPTYTDDFKGRFTMTLDTSISTAYMELSRLRSDDTAVYYCAKDVSGFVFDYWGQGTLVTVSS
VL: DIVMTQSPDSLAVSLGERATINCKSSQSLLNIIKQKNCLAWYQQKPGQPPKLLIYWASTRESGVPDRFSGSGSGTDFTLTISSLQAEDVAVYYCQQYYSYPYTFGQGTKLEIKR
notes: also called hP-1; humanized mAb CT140

— US20090136500A1 (CISTHERA, published 2009)
